According to patent US7528244:

Biological target: T1, caspase-3, P42574
T1 chain: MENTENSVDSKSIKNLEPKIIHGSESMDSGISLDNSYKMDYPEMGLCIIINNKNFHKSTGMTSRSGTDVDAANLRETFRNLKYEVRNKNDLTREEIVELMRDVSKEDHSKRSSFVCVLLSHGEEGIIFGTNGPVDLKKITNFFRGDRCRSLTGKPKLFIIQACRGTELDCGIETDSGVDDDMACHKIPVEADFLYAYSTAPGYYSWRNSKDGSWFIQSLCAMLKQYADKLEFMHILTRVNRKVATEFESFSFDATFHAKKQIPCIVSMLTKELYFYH

B1: caspase-8 (217-479) (protein)
chain: SESQTLDKVYQMKSKPRGYCLIINNHNFAKAREKVPKLHSIRDRNGTHLDAGALTTTFEELHFEIKPHDDCTVEQIYEILKIYQLMDHSNMDCFICCILSHGDKGIIYGTDGQEAPIYELTSQFTGLKCPSLAGKPKVFFIQACQGDNYQKGIPVETDSEEQPYLEMDLSSPQTRYIPDEADFLLGMATVNNCVSYRNPAEGTWYIQSLCQSLRERCPRGDDILTILTEVNYEVSNKDDKKNMGKQMPQPTFTLRKKLVFPSD
processing of 35S-labeled caspase-3 precursor by in vitro translated protein: In vitro translated Casper (192-480) could not process caspase-3, whereas in vitro translated caspase-8 (217-479) could
